For the test, the target named is human HER3 receptor (human) (UniProt P21860). The test can be described thus: cell-based or functional assay.

This passage reports fold induction of 6×JNK-Luc reporter activity and fold induction of JNK-Luc (3 copies of AP-1) reporter activity results from patent publication US20180274043A1.

In turn, “neuregulin-1 (from UniProt Q02297 177-241) (ligand)” came in with a fold induction of 6×JNK-Luc reporter activity at 100 ng/ml NRG1 of 4.2 fold and a fold induction of JNK-Luc (3 copies of AP-1) reporter activity at 100 ng/ml NRG1 of 2.6 fold.
